Test results from US8642555.

Test system: albumin-bound form of EMC-Arg-Ser-Ser-Tyr-Tyr-Ser-Leu-PABC-DOXO (6)

## prostate-specific antigen (PSA)
  PSA-mediated cleavage monitored by HPLC (enzyme activity): cleaved efficiently within a few hours
